The test has as its target synthetic wild-type CRN2 coiled coil peptide (human), Q9ULV4. In words: SEC-MALS. (Size exclusion chromatography separates by hydrodynamic size, large species first.)

B1: synthetic wild-type CRN2 coiled coil peptide, Q9ULV4 442-472 (peptide)
chain: VQNEAKLDEILKEIKSIKDTICNQDERISKLEQQMAKIAA
modifications: not checked
B1: the stoichiometry N was found to be 3.

As a reminder, the stoichiometry N is the number of molecules, sites or subunits per partner or assembly.
